This test deals with Qβ replicase core complex (β-subunit, EF-Tu and EF-Ts), wild type (E. coli | bacteriophage Qβ). Description: SEC-MALS. (In gel filtration, larger molecules generally elute earlier.)

What is called stoichiometry N is the number of molecules, sites or subunits per partner or assembly. “Qβ replicase core complex (β-subunit, EF-Tu and EF-Ts), wild type” had a stoichiometry N of 2.

Source of the values: publication PMC4678825.
